Patent US9388387B2, “Differentiation of human embryonic stem cells” (Janssen Biotech, Inc., priority 2008, dated 2016)

System: cells of the human embryonic stem cell line H1 differentiated to stage 6
Assay: Real-time PCR gene expression profile of stage 6 cultures +/- activin A, enriched using a 40 μm filter
Assay type: cell-based
Settings: 10 ng/ml activin A added at stage 6 for seven days, H1 cells passage 43, FIG. 4 panels a-f
Protocol: (1:30 dilution) coated dishes and exposed to RPMI medium supplemented with 2% BSA (Catalog#152401, MP Biomedical, Ohio), and 100 ng/ml activin A (R&D Systems, MN) plus 20 ng/ml WNT-3a (Catalog#1324-WN-002, R&D Systems, MN) plus 8 ng/ml of bFGF (Catalog#100-18B, PeproTech, NJ), for one day followed by treatment with RPMI media supplemented with 2% BSA and 100 ng/ml activin A plus 8 ng/ml of bFGF for an additional two days. Next the cultures were treated with DMEM/F12+2% BSA+50 ng/ml FGF7+0.25 μM Cyclopamine-KAAD (#239804, Calbiochem, CA) for two days, followed by four days incubation in DMEM/F12+1% B27 (Invitrogen, CA)+50 ng/ml FGF7+0.25 μM Cyclopamine-KAAD+2 μM Retinoic acid (RA) (Sigma, MO)+100 ng/ml of Noggin (R & D Systems, MN).
Cells were differentiated into pancreatic endocrine cells by incubating the cells in DMEM/F12+1% B27 (Invitrogen, CA)+100 ng/ml Noggin+1 μM DAPT (a gamma-secretase inhibitor) (Catalog#565784, Calbiochem, CA)+1 μM ALK5 inhibitor II (Catalog#616452, Calbiochem, Ca)+100 ng/ml of Netrin-4 (R&D Systems, MN) for three days followed by additional seven days incubation in DMEM/F12+1% B27 (Invitrogen, CA)+1 μM ALK5 inhibitor II (Calbiochem, Ca). […] At each stage cell number was calculated using a hemocytometer and RNA was collected for PCR analysis. […]

B1: activin A: a member of the TGF-β superfamily; TGF-β receptor agonist (R&D Systems, MN) (protein, UniProt P08476 311-426, looked up)
Inhibin beta A chain: GLECDGKVNICCKKQFFVSFKDIGWNDWIIAPSGYHANYCEGECPSHIAGTSGSSLSFHSTVINHYRMRGHSPFANLKSCCVPTKLRPMSMLYYDDGQNIIKKDIQNMIVEECGCS
expression of pancreatic endocrine markers (pdx-1, nkx6-1, Pax4, nkx2.2, insulin, glucagon): significantly boosted expression of all key pancreatic endocrine markers
